Test [1] concerns the target T1, CEACAM5 expressed on the surface of HEK293 cells (human, UniProt P06731 35-685).
T1 construct: whole, on cells; GFP-tagged clone; also called CEACAM5-GFP
T1 sequence (looked up): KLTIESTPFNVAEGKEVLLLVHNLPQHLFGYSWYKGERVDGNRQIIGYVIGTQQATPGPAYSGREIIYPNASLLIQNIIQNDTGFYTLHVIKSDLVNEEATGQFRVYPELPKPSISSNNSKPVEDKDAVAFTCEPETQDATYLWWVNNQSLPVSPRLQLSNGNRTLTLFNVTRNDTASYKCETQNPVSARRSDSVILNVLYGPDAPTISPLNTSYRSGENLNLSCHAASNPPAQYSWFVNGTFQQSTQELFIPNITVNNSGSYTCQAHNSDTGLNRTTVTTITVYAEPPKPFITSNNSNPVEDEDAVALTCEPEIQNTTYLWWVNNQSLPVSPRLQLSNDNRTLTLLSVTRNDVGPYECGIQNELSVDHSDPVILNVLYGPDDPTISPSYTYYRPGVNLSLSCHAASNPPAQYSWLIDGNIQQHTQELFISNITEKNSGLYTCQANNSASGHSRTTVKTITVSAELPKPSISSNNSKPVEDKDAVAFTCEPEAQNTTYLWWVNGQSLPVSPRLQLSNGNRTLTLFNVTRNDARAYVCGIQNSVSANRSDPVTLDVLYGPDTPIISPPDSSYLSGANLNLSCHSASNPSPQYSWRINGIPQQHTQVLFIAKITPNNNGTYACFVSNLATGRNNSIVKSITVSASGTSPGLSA
As to the kind of experiment: flow cytometry on transfected HEK293 cells (GFP+ gate), PE goat anti-huIgG4 [a]. On the procedure: HEK293 cells were added with 10 μg of each pEF1α-AcGFP-N1 vector (Clontech, Cat. No. 631973) as a control vector, CEACAM1, CEACAM3, CEACAM5, CEACAM6 and CEACAM8 plasmid vectors, followed by transfection under the condition of pulse voltage 1,100 V, pulse width 20 ms and pulse number 2. After 48 hours of transfection, GFP expression was confirmed by fluorescence microscopy. The cells were detached by treatment with 1 ml of TrypLE Express Solution (ThermoFisher Scientific; Cat. No. 12605010), resuspended in 9 ml of DMEM (Gibco, Cat. No. 11995-065) supplemented with 10% (v/v) FBS, and centrifuged at 1,200 rpm for 5 minutes, to remove the resulting supernatant.
After washing once with PBS, the cells were resuspended in a FACS buffer to obtain a concentration of 5×10⁵ cells/100 μl. Human Fc Block solution was added to the samples at 1 μl/sample, which were incubated at 4° C. for 10 minutes. The cells were treated with hulgG4 or one of the anti-CEACAM1 clones listed at 1 μg/5×10⁵ cells, which were incubated at 4° C. for 10 minutes. After washing with FACS buffer, the PE-labeled goat-anti-huIgG4 antibodies were diluted at a ratio of 1:200 in a FACS buffer, and added to the samples at 100 μl/sample, which were incubated at 4° C. for 30 minutes. The samples were filled with a FACS buffer up to 200 μl, and then centrifuged at 1,200 rpm for 5 minutes, to remove the resulting supernatant. The fixation buffer (300 μl) was added to resuspend the cells. The cells expressing GFP were selected in the FACS LSR-Fortessa device, and the expression of CEACAM members were evaluated respectively using the antibody specific to each CEACAM member (Table 3). Also, the binding of anti-CEACAM1 antibodies was evaluated by PE fluorescence channel and analyzed using the FlowJo software.
In general terms: Flow cytometry measures light scatter and fluorescence of single cells or particles in a stream.

Test [2] deals with T2, recombinant CEACAM1 protein (UniProt P13688 35-428, limits assumed).
T2 sequence (looked up): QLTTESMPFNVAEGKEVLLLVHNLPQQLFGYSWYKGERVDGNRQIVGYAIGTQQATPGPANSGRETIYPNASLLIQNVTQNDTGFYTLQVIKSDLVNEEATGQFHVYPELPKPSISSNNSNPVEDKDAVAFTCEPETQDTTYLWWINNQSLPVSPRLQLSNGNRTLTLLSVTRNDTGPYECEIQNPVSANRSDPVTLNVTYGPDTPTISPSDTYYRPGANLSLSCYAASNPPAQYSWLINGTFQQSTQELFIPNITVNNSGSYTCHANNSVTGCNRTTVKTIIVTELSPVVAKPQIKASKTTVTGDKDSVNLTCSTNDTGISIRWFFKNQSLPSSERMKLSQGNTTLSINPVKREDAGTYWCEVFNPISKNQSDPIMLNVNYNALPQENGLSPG
As to the kind of experiment: ELISA, coated recombinant CEACAM1, anti-human IgG-HRP detection. On the procedure:
Then, each well was washed 3 times with a washing buffer prepared by diluting 10 μl of Tween 20 (Sigma-Aldrich; Cat. No. P9146) in 990 μl of PBS.
On the technique in general: An ELISA detects its analyte on a solid surface through an enzyme-linked reagent.

Results on one molecule are retold here after patent US20200109196A1 (MOGAM INSTITUTE FOR BIOMEDICAL RESEARCH, published 2020).

As a reminder, the EC50 is the concentration that produces a half-maximal response.

B1: C25 (antibody, human IgG4 S228P, lambda, V domains shown)
VH: EVQLLESGGGLVQPGGSLRLSCAASGFTFSNYAMSWVRQAPGKGLEWVSVISHGGGSIYYADSVKGRLTISRDNSKNTLYLQMNSLRAEDTAVYYCARDPTKGYAPTFDYWGQGTLVTVSS
VL: QSVLTQPPSASGTPGQRVTISCSGSSSNIGNNYVSWYQQLPGTAPKLLIYADSKRPSGVPDRFSGSKSGTSASLAISGLRSEDEADYYCGAWDASLNGYVFGGGTKLTVLG
notes: Made in ExpiHEK293F cells, protein A purified. huIgG4 is the isotype control and anti-huIgG4 the detection reagent; the isotype is not otherwise stated; also called anti-CEACAM1 antibody C25
In the case of B1, in test [1], the binding result was “no binding”. In test [2], the EC50 was found to be 0.35 nM.
